From publication PMC3595137 (Nature communications, 2013)

B1: purified recombinant α-SNAP (His-tagged, wild type) (natural protein)
chain: MDNSGKEAEAMALLAEAERKVKNSQSFFSGLFGGSSKIEEACEIYARAANMFKMAKNWSAAGNAFCQAAQLHLQLQSKHDAATCFVDAGNAFKKADPQEAINCLMRAIEIYTDMGRFTIAAKHHISIAEIYETELVDIEKAIAHYEQSADYYKGEESNSSANKCLLKVAGYAALLEQYQKAIDIYEQVGTNAMDSPLLKYSAKDYFFKAALCHFCIDMLNAKLAVQKYEELFPAFSDSRECKLMKKLLEAHEEQNVDSYTESVKEYDSISRLDQWLTTMLLRIKKTIQGDEEDLR
B2: FLAG-AMPKα2 (natural protein)
chain: MAEKQKHDGRVKIGHYVLGDTLGVGTFGKVKIGEHQLTGHKVAVKILNRQKIRSLDVVGKIKREIQNLKLFRHPHIIKLYQVISTPTDFFMVMEYVSGGELFDYICKHGRVEEMEARRLFQQILSAVDYCHRHMVVHRDLKPENVLLDAHMNAKIADFGLSNMMSDGEFLRTSCGSPNYAAPEVISGRLYAGPEVDIWSCGVILYALLCGTLPFDDEHVPTLFKKIRGGVFYIPEYLNRSVATLLMHMLQVDPLKRATIKDIREHEWFKQDLPSYLFPEDPSYDANVIDDEAVKEVCEKFECTESEVMNSLYSGDPQDQLAVAYHLIIDNRRIMNQASEFYLASSPPSGSFMDDSAMHIPPGLKPHPERMPPLIADSPKARCPLDALNTTKPKSLAVKKAKWHLGIRSQSKPYDIMAEVYRAMKQLDFEWKVVNAYHLRVRRKNPVTGNYVKMSLQLYLVDNRSYLLDFKSIDDEVVEQRSGSSTPQRSCSAAGLHRPRSSFDSTTAESHSLSGSLTGSLTGSTLSSVSPRLGSHTMDFFEMCASLITTLAR

Experiments:
[1] = molecular target: FLAG-tagged AMPK-γ1 (wild type) (UniProt P54619 1-331); assay: pull-down
[2] = molecular target: T1, HA-α-SNAP M105I (hyh mutant) (human, UniProt P54920 1-295, M105I); assay: co-IP
T1 sequence: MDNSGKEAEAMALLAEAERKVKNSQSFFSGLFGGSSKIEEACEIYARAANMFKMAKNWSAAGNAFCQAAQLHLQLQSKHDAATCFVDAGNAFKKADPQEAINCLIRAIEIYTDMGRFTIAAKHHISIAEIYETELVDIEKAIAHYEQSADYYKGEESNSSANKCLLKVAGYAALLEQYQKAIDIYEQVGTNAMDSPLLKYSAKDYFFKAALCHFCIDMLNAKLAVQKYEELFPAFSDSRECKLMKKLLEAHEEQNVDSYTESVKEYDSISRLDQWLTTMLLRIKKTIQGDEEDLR

Sequence of FLAG-tagged AMPK-γ1 (wild type) (P54619 whole entry): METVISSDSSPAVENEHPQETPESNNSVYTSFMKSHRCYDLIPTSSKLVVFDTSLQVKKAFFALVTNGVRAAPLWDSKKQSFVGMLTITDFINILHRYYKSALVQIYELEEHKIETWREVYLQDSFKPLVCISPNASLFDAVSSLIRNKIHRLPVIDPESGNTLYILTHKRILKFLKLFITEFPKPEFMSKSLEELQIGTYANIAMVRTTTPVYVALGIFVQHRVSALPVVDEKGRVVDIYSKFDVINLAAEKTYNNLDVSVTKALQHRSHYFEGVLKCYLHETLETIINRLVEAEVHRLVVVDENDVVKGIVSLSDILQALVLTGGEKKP

Binder | fold increase in binding with ATP against no nucleotide [1] [fold] | fold increase in co-immunoprecipitation against WT α-SNAP [2] [fold]
B1 | 2 | –
B2 | – | ~2
